Results as given in article PMC5798343.
Blank lines part the entries; values can stand above or below the substance they belong to.

Key:
Experiment in all cases: SEC
[1] = biological target: ΔNp63α R279H in the V603D background
[2] = biological target: ΔNp63α R304Q/V603D
[3] = biological target: ΔNp63α V603D

stoichiometry N [1]: 4
Substance: ΔNp63α R279H in the V603D background (natural protein)

stoichiometry N [2]: 4
Substance: ΔNp63α R304Q/V603D (natural protein)

stoichiometry N [3]: 4
Substance: ΔNp63α V603D (natural protein)
